Experimental data reported in PMC9405973, “Altered Conformational Landscape upon Sensing Guanine Nucleotides in a Disease Mutant of Elongation Factor-like 1 (EFL1) GTPase” (Biomolecules, 2022).
Where a chain is given by its changes, count along the chain named. Numbers in names are those of the source.

B1: Efl1 R1086Q (Saccharomyces cerevisiae S288C; R1086Q) (protein)
chain: MPRVESETYKRLQNDPSCIRNICIVAHVDHGKTSLSDSLLASNGIISQRLAGKIRFLDARPDEQLRGITMESSAISLYFRVLRKQEGSDEPLVSEHLVNLIDSPGHIDFSSEVSAASRLCDGAVVLVDVVEGVCSQTVTVLRQCWTEKLKPILVLNKIDRLITELQLTPQEAYIHLSKVIEQVNSVIGSFFANERQLDDLFWREQLEKNENAEYIEKDDSGIYFNPTDNNVIFASAIDGWGFNIGQLAKFYEQKLGAKRENLQKVLWGDFYMDPKTKKIINNKGLKGRSLKPLFTSLILENIWKIYQNIITSRDSEMVEKIAKTLNIKLLARDLRSKDDKQLLRTIMGQWLPVSTAVLLTVIEKLPSPLESQTDRLNTILVSESDTAAMDPRLLKAMKTCDKEGPVSAYVSKMLSIPREELPVESKRIASSDELMERSRKAREEALNAAKHAGMVENMAMMDLNDNSKNTSDLYKRAKDTVMTPEVGEQTKPKPSRNNDVFCVVSEPSSALDLEFEYEGEDDSDSQDNFGLDFVPTDIDPNDPLSSMFEYEEEDPLLESIKQISEDVNDEVDDIFDEKEECLVAFARIYSGTLRVGQEISVLGPKYDPKCPEEHIETAIITHLYLFMGKELVPLDVCPSGNIVGIRGLAGKVLKSGTLIEKGVQGVNLAGVNFHFTPIVRVAVEPANPVEMSKLVRGLKLLDQADPCVHTYVENTGEHILCTAGELHLERCLKDLTERFAGIEITHSEPAIPYRETFLSASDMNPPQNSQLGRGVHELLLSQYKITFRTFPLSGKVTDFLSQHQNSIKNILKTSTSSMDPVIESTGSSFLDKKSLLVAFEEVINQEEKSRELLSGFKVKLAGFGPSRVGCNILLSQDNLLGSLFEGTPAAFEYSDSIKNGFQLAVSEGPLANEPVQGMCVLVESVHKMSQDEIESIEDPRYQQHIVDLSGRLITSTRDAIHEAFLDWSPRIMWAIYSCDIQTSVDVLGKVYAVILQRHGKIISEEMKEGTPFFQIEAHVPVVEAFGLSEDIRKRTSGAAQPQLVFSGFECIDLDPFWVPTTEEELEELGDTADRENIARKHMNAIQRRKGLFIEEKVVENAEKQRTLKKN
notes: recombinantly expressed in S. cerevisiae; isolated GTPase
B2: Efl1 L910K (Saccharomyces cerevisiae S288C; L910K) (protein)
chain: B1 chain with L910K, Q1086R
notes: as for B1
B3: Efl1 L910K • Sdo1: binary complex of mutant GTPase Efl1 L910K and effector Sdo1 (protein, UniProt P53893 1-1110; Q07953 1-250, looked up, variant L910K)
Ribosome assembly protein 1: B1 chain with L910K, Q1086R
Ribosome maturation protein …: MPINQPSGQIKLTNVSLVRLKKARKRFEVACYQNKVQDYRKGIEKDLDEVLQIHQVFMNVSKGLVANKEDLQKCFGTTNVDDVIEEIMHKGEIQLSEKERQLMLNKVNNEMLTIVSAKCINPVSKKRYPPTMIHKALQELKFSPVINKPAKLQALEAIKLLVSKQIIPIVRAKMKVKVAISEPSRQPELIEKISKLIASSPGESTKPELDPWTCTGLIDPVNYRDLMTLCDKKGTVQVLDMAVIDNTTHN
modifications: binary complex
B4: Efl1 WT • Sdo1: binary complex of wild-type Efl1 GTPase and effector Sdo1 (protein, UniProt P53893 1-1110; Q07953 1-250, looked up)
Ribosome assembly protein 1: B1 chain with Q1086R
Ribosome maturation protein …: B3 Ribosome maturation protein …
modifications: binary complex

Tests used:
[1] = target: Sdo1 (Saccharomyces cerevisiae) (UniProt Q07953); test: ITC; settings: cited from earlier work
[2] = substrate: Nc1nc2c(ncn2[C@@H]2O[C@H](COP(=O)(O)OP(=O)(O)OP(=O)(O)O)[C@@H](O)[C@H]2O)c(=O)[nH]1; test: GTP hydrolysis by PNP-coupled Enzchek phosphate assay (MESG, 360 nm), pH 7.5, 5 mM MgCl2, 6 µM Efl1 alone, Michaelis-Menten fit.; format: biochemical; settings: 25.0 °C
Description: (§1) Finally, we measured the enzyme kinetics of mutant Efl1 R1086Q as an isolated enzyme and bound to Sdo1 using an enzymatic coupled assay with a purine nucleoside phosphorylase (PNP) enzyme. This analysis was extended to another disease mutation (EFL1 M882K) also located in domain IV of the GTPase using the equivalent yeast variant, Efl1 L910K [17]. The Km and kcat kinetic parameters were calculated using non-linear regression assuming a Michaelis–Menten model (Supplementary Table S1). […] The catalytic constant for mutant R1086Q and the wild-type enzyme consisted of 0.67 min^−1, and it was 0.58 min^−1 for mutant Efl1 L910K. […] In line with the proposed role of Sdo1 as a guanine exchange factor of Efl1, previous results have shown that the interaction of wild-type Efl1 with Sdo1 impacted its Km for GTP, decreasing its value 2–3-fold. The Km values for the complexes formed between Sdo1 and Efl1 mutants decreased by half with respect to their cognate-free counterpart and differed from each other. […] The measured Km value comprises all the microscopic rate constants of the individual reactions occurring in the enzyme, which include the binding to the substrate and product and the corresponding conformational changes.
Hydrolysis of GTP was measured using the Enzchek Phosphate Assay kit (Molecular Probes) as described by Webb. […]
Reactions were initiated and the GTPase was added after 3 min. Time courses were followed by recording the change in absorbance at 360 nm in a Cary 60 UV -Vis spectrophotometer (Agilent Technologies). Background absorbance was recorded prior to the addition of the GTPase and subtracted from the sample signals. The slope of the measured time courses corresponded to the GTP hydrolysis rate. […] Data were analysed by nonlinear regression to the M ichaelis-Menten equation with the program Origin Version 5.0 (OriginLab, Co., Northampton, MA). […]
(§2) Maximum emission at 440 nm was replotted as a function of nucleotide concentration and analysed

[3] = Enzyme kinetics of GTP hydrolysis (PNP coupled assay, Michaelis–Menten); format: biochemical, Saccharomyces cerevisiae
Description: as §1
Hydrolysis of GTP was measured using the Enzchek Phosphate Assay kit (Molecular Probes) as described by Webb. Standard reactions consisted of 100 µL containing 6 µM of Efl1 R1086Q and Efl1 L910K, 0.3 mM MESG, 1.0 U purine nucleoside phosphorylase (PNP) and the indicated amounts of GTP. Measurements done in the presence of effector protein contained 25 µM of Sdo1.
The reaction buffer consisted of 50 mM HEPES -KOH pH 7.5, 150 mM NaCl, 5 mM MgCl2.
Reactions were initiated and the GTPase was added after 3 min. Time courses were followed by recording the change in absorbance at 360 nm in a Cary 60 UV -Vis spectrophotometer (Agilent Technologies). Background absorbance was recorded prior to the addition of the GTPase and subtracted from the sample signals. The slope of the measured time courses corresponded to the GTP hydrolysis rate. The concentration of releas ed phosphate was estimated using a molar absorption coefficient at 360 nm of 14,386 M -1 cm-1 previously described in [2]. Data were analysed by nonlinear regression to the M ichaelis-Menten equation with the program Origin Version 5.0 (OriginLab, Co., Northampton, MA). […]
M HEPES-KOH pH 7.4, 2.5 mM magnesium acetate, 50 mM sucrose, 2 mM DTT, 0.1 mM PMSF, 0.1 mM benzamidine, 8 mM putrescine, 1 mM spermidine. […]
Dilution at the end of each titration was no longer than 2.5% of the initial volume. Data were corrected for the background signal by subtracting the fluorescence of the same ligand concentration without the GTPase in the reaction mixture.
as §2

[4] = system: Tif6 bound to 60S subunits; test: Tif6 release assay with purified yeast components; format: biochemical, Saccharomyces cerevisiae; settings: 50 nM Efl1 variant, 50 nM Sdo1, 100 µM GTP, 30 °C, 10 min
Description: The release of Tif6 (yeast orthologue of eIF6) was performed as previously described in [3, 15]. Reaction mixtures contained 10 nM 60S subunits, 40 nM Tif6, 50 nM Efl1 variant, 50 nM Sdo1, and 100 µM GTP in buffer of 10 mM Tris-HCl at pH 7.4, 75 mM KCl, and 1.5 mM MgCl2 supplemented with RNAse inhibitors (Promega, Madison, WI, USA) and protease inhibitors free of EDTA (GoldBio, St. Louis, MO, USA). GTP was omitted in the negative control, and 50 mM EDTA was added as the positive control to disassemble the 60S ribosomal subunits. Reaction mixtures of 100 µL were incubated at 30 °C for 10 min and added on top of 150 µL of a 30% sucrose cushion prepared in the same buffer. Samples were centrifuged at 476,000× g for 30 min in an Optima tabletop MX ultracentrifuge with a TLA-100 rotor. The top 200 µL (free fraction) was recovered, and the remaining 50 µL was resuspended in 150 µL of the same buffer. Samples were precipitated with 30% trichloroacetic acid, electrophoresed in 10% Tris-glycine SDS-PAGE, transferred to a PVDF membrane, and immunoblotted with antibodies anti-eIF6 (PA531066; Thermo Scientific; dilution 1:3000) and anti-uL3 (OAAB09713; Aviva Systems Biology, San Diego, CA, USA; dilution 1:500) overnight at 4 °C. […] Signals were quantified using programme Image J version 1.8.0. […]

[5] = enzyme in complex with Sdo1 (25 µM Sdo1)

Molecule	Km [2] [µM]	kcat [3, 5] [s⁻¹]	further results
Efl1 (from UniProt P53893)			Kd [1]: 300 nM
B1	146		kcat ([3]; isolated enzyme): 0.0112 s⁻¹; release of Tif6 from the 60S subunit (distribution of Tif6 in free and bound fraction, immunoblot) [4]: reduced portion of Tif6 in the free fraction compared with that for the wild type
B2	185		
B3		0.0125	
B4		0.0107	
